Reference: US20170174769A1 (Regeneron, published 2017)

How the values were obtained:
[1] = target: T1, human KLB and human FGFR1c co-expressed on HEK293/hKLB/hFGFR1c/SRE-luc cells (human, UniProt Q86Z14 1-1044; P11362 22-822); assay: FACS on stable HEK293 cells, 33 nM
T1 construct: two receptors co-expressed on one cell line; also called KLB/FGFR1c coreceptor; FGF21R
Description: (§1) For the FACS analysis, HEK293 parental, HEK293/hFGFR1c, HEK293/hFGFR1c/hKLB, and HEK293/mFGFR1c/mKLB cells were dissociated and plated onto 96-well v-bottom plates at 0.5×10⁶ cells/well in 2% FBS/PBS. […] Control mAb2 was tested at a concentration of 965 nM. After primary protein incubation cells were washed and incubated with 3.75 μg/mL fluorescently conjugated secondary antibodies for 30 minutes at 4° C. Cells were filtered and analyzed on Accuri™ 6 Flow Cytometer. Unstained and secondary antibody alone controls were also tested for all cell lines. The results were analyzed using FlowJo version 9.52 software and geometric mean (Geom. Mean) of fluorescence for viable cells were determined. Geom. mean of fluorescence for each antibody was then normalized to Geom. mean of unstained cells to obtain relative binding of antibody (binding ratios) per each cell type.

[2] = target: T2, full-length human FGFR1c on HEK293/hFGFR1c/SRE-luc cells (human, UniProt P11362 22-822); assay: FACS on stable HEK293 cells, 33 nM
T2 construct: amino acids 1-733 of NP_075593
T2 sequence (P11362 other isoform, or with tags, fused parts or gaps limits assumed): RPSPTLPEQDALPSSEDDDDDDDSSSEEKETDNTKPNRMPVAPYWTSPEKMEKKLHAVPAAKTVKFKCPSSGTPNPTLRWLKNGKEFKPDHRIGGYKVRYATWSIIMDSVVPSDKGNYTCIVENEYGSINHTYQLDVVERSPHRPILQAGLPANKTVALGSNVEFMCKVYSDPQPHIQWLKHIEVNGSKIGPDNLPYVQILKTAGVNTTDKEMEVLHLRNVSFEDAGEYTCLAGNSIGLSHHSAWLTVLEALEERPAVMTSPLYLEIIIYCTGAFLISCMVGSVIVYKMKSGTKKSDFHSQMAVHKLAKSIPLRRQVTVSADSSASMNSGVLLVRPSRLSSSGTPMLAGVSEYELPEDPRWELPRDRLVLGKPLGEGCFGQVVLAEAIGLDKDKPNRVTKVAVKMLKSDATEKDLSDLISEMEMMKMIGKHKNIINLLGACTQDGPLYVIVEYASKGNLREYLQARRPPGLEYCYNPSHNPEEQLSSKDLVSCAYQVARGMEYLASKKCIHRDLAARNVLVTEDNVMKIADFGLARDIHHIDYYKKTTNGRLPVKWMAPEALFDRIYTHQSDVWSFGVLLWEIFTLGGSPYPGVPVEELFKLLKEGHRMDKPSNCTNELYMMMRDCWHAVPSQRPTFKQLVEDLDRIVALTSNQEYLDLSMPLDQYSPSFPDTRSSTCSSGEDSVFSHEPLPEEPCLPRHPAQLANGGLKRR
Description: as §1

[3] = target: T1, human KLB and human FGFR1c co-expressed …; assay: FACS on stable HEK293 cells, 965 nM
Description: as §1

[4] = target: T2, full-length human FGFR1c on …; assay: FACS on stable HEK293 cells, 965 nM
Description: as §1

T1 sequence (Q86Z14 whole entry, chain 1 of 2): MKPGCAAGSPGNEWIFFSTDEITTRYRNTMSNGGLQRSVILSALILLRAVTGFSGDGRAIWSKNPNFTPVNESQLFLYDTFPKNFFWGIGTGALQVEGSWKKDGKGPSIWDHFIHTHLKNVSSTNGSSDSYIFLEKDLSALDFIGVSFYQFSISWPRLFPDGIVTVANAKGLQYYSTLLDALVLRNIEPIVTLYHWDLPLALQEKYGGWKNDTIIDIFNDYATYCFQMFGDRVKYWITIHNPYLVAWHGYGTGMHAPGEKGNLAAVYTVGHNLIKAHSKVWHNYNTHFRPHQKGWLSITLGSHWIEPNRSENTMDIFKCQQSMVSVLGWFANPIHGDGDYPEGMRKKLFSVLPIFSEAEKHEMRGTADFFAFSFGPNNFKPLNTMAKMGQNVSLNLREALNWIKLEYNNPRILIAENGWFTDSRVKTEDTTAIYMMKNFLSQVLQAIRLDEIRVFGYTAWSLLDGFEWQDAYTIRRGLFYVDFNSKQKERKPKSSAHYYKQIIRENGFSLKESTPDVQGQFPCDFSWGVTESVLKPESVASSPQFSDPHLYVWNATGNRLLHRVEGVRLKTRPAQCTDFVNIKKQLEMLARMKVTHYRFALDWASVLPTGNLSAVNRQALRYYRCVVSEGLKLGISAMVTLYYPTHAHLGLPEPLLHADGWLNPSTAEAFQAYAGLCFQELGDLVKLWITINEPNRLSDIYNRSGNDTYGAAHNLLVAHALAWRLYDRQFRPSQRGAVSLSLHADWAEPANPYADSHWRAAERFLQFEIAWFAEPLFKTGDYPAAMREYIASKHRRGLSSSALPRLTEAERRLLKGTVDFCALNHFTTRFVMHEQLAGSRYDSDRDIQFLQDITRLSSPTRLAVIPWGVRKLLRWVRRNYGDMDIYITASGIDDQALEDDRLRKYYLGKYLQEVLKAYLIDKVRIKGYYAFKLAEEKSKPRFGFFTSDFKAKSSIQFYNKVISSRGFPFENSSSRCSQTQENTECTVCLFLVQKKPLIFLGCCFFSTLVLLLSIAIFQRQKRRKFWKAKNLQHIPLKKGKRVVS
T1 sequence (P11362 other isoform, or with tags, fused parts or gaps limits assumed, chain 2 of 2): as the sequence (P11362 other isoform, or with tags, fused parts or gaps limits assumed) above

B1: H1H8900P (antibody, V domains shown)
VH: QVQLVESGGGVVQPGRSLRLSCVASGFTFSSYGMHWVRQAPGKGLEWVAVISFDGSNKYYADSVKGRFTISRDNSKNTLYLQMNSLRPADTAVYYCAKDRSNYYYFGMDVWGQGTTVTVSS
VL: DIVMTQTPLSLPVTPGEPASISCRSSQSLLDSDDGNTYLDWYLQKPGQSPQLLIYTLSYRASGVPDRFSGSGSGTDFTLKISRVEAEDVGVYYCMQRIEFPLTFGGGTKVEIK
notes: H1H Fc prefix (human Fc)
MFI Ratio to unstained cells [1]: 2 fold | MFI Ratio to unstained cells [2]: 2 fold | MFI Ratio to unstained cells [3]: 5 fold | MFI Ratio to unstained cells [4]: 5 fold
